Literature values, collected in publication PMC3772054.
pKd: −log10 of the molar value.

Assays:
IL-2Rα (Homo sapiens) = IL-2Rα (Homo sapiens) (UniProt P01589)
IL-15Rα (Homo sapiens) = IL-15Rα (Homo sapiens) (UniProt Q13261)
Chain of UniProt Q13261 (Q13261 31-205): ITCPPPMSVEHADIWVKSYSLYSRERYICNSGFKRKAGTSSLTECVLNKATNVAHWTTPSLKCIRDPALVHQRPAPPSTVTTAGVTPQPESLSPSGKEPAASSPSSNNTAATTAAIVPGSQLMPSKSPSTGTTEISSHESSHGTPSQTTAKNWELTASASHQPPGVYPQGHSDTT

Chain of UniProt P01589 (P01589 22-240): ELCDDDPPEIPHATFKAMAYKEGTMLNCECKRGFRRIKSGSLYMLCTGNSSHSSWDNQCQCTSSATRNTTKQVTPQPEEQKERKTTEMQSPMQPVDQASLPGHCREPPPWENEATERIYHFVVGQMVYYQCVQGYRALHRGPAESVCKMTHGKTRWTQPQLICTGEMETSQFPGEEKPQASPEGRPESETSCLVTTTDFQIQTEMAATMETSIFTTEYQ

| pKd (IL-2Rα (Homo sapiens)) | pKd (IL-15Rα (Homo sapiens)) | Substance |
| --- | --- | --- |
| 8.32 |  | IL-2 (from UniProt P60568) |
|  | 10.42 | IL-15 (from UniProt P40933) |
